# Assay results taken from publication doi:10.1101/211250 (bioRxiv, 2017).
# Non-standard residues stand in square brackets, D forms with d. No end group written: not given here. pS = N[C@@H](COP(=O)(O)O)C(=O)O
# B1: FITC-labeled p-1 phosphorylated MCC peptide (peptide)
# peptide: HTNET[pS]L
# modifications: also: FITC label (position not given here)
# B2: FITC-labeled unphosphorylated TANC1 peptide (KRSFIESNV-coo-) (peptide)
# peptide: KRSFIESNV-OH
# modifications: also: FITC label, position not given here
# B3: FITC-labeled p-6 phosphorylated TANC1 peptide (peptide)
# peptide: KR[pS]FIESNV
# modifications: also: FITC label, position not given here
# B4: FITC-labelled phosphorylated RPS6KA1 peptide (S732, p-3) (peptide)
# peptide: VRKLP[pS]TTL
# modifications: also: FITC label, position not given here
# B5: FITC-labelled unphosphorylated RPS6KA1 peptide (VRKLPSTTL-coo-) (peptide)
# peptide: VRKLPSTTL-OH
# modifications: also: FITC label, position not given here
# B6: unphosphorylated RPS6KA2 peptide (MKRLTSTRL-coo-) (peptide)
# peptide: MKRLTSTRL-OH
# B7: FITC-labeled phosphomimetic RPS6KA2 peptide (p-3 Ser to Glu) (peptide)
# peptide: RLTETRL
# modifications: also: FITC label, position not given here
# B8: Shank1 PDZ (domain or fragment)
# chain: TVLLQKKDSEGFGFVLRGAKAQTPIEEFTPTPAFPALQYLESVDEGGVAWRAGLRMGDFLIEVNGQNVVKVGHRQVVNMIRQGGNTLMVKVVMVT
# B9: unphosphorylated MCC peptide (RPHTNETSL-coo-) (peptide)
# peptide: RPHTNETSL-OH
# B10: p-3 phosphorylated RPS6KA2 peptide (MKRLTpSTRL-coo-) (peptide)
# peptide: MKRLT[pS]TRL-OH
# modifications: N-terminus assumed
# SMILES: CSCC[C@H](N)C(=O)N[C@@H](CCCCN)C(=O)N[C@@H](CCCNC(=N)N)C(=O)N[C@@H](CC(C)C)C(=O)N[C@H](C(=O)N[C@@H](COP(=O)(O)O)C(=O)N[C@H](C(=O)N[C@@H](CCCNC(=N)N)C(=O)N[C@@H](CC(C)C)C(=O)O)[C@@H](C)O)[C@@H](C)O
# B11: FITC-labeled p-3 phosphorylated RPS6KA2 peptide (peptide)
# peptide: RLT[pS]TRL
# modifications: also: FITC label (position not given here)
# B12: FITC-labeled unphosphorylated RPS6KA2 peptide (RLTSTRL-coo-) (peptide)
# peptide: RLTSTRL-OH
# modifications: also: FITC label, position not given here
# B13: FITC-labeled unphosphorylated MCC peptide (HTNETSL-coo-) (peptide)
# peptide: HTNETSL-OH
# modifications: also: FITC label, position not given here
# B14: p-1 phosphorylated MCC peptide (RPHTNETpSL-coo-) (peptide)
# peptide: RPHTNET[pS]L-OH
# modifications: N-terminus assumed
# SMILES: CC(C)C[C@H](NC(=O)[C@H](COP(=O)(O)O)NC(=O)[C@@H](NC(=O)[C@H](CCC(=O)O)NC(=O)[C@H](CC(N)=O)NC(=O)[C@@H](NC(=O)[C@H](Cc1c[nH]cn1)NC(=O)[C@@H]1CCCN1C(=O)[C@@H](N)CCCNC(=N)N)[C@@H](C)O)[C@@H](C)O)C(=O)O
# Experiments:
# [1] = target: FITC-labeled phosphomimetic RPS6KA2 peptide (p-3 Ser to Glu) (human) (UniProt Q15349); test: MST
# [2] = target: FITC-labeled p-3 phosphorylated RPS6KA2 peptide (human); test: MST
# [3] = target: FITC-labeled p-6 phosphorylated TANC1 peptide (human); test: MST
# [4] = target: FITC-labeled p-1 phosphorylated MCC peptide (human); test: MST
# [5] = target: FITC-labeled phosphomimetic TANC1 peptide (p-6 Ser to Glu) (human) (UniProt Q9C0D5); test: MST
# Scribble PDZ1 [6] = target: T1, Scribble PDZ1 (human, UniProt Q14160 719-829); test: MST
# Scribble PDZ1 R801A = Scribble PDZ1 R801A (human, UniProt Q14160 719-829, R801A); test: ITC
# Scribble PDZ1 K746A = Scribble PDZ1 K746A (human, UniProt Q14160 719-829, K746A); test: ITC
# Scribble PDZ1 [7] = target: T1, Scribble PDZ1; test: ITC
# [8] = target: Scribble PDZ1 R762A/A743R (human, UniProt Q14160 719-829, R762A | A743R); test: ITC
# Scribble PDZ1 R762A = Scribble PDZ1 R762A (human, UniProt Q14160 719-829, R762A); test: ITC
# [9] = target: B11; test: MST
# [10] = target: B1; test: MST
# Chain of Scribble PDZ1 R762A/A743R (Q14160 719-829 A743R/R762A): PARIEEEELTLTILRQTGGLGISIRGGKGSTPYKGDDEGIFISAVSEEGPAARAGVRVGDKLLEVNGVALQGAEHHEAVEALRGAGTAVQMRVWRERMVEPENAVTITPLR
# T1 sequence (Q14160 719-829): as the sequence (Q14160 719-829 A743R/R762A) above, with R25A, A44R counted along it
# Chain of Scribble PDZ1 R762A (Q14160 719-829 R762A): as the sequence (Q14160 719-829 A743R/R762A) above, with R25A counted along it
# Chain of Scribble PDZ1 K746A (Q14160 719-829 K746A): as the sequence (Q14160 719-829 A743R/R762A) above, with R25A, K28A, A44R counted along it
# Chain of Scribble PDZ1 R801A (Q14160 719-829 R801A): as the sequence (Q14160 719-829 A743R/R762A) above, with R25A, A44R, R83A counted along it
# Chain of FITC-labeled phosphomimetic RPS6KA2 peptide (p-3 Ser to Glu) (human) (Q15349 whole entry, looked up, tested part not stated): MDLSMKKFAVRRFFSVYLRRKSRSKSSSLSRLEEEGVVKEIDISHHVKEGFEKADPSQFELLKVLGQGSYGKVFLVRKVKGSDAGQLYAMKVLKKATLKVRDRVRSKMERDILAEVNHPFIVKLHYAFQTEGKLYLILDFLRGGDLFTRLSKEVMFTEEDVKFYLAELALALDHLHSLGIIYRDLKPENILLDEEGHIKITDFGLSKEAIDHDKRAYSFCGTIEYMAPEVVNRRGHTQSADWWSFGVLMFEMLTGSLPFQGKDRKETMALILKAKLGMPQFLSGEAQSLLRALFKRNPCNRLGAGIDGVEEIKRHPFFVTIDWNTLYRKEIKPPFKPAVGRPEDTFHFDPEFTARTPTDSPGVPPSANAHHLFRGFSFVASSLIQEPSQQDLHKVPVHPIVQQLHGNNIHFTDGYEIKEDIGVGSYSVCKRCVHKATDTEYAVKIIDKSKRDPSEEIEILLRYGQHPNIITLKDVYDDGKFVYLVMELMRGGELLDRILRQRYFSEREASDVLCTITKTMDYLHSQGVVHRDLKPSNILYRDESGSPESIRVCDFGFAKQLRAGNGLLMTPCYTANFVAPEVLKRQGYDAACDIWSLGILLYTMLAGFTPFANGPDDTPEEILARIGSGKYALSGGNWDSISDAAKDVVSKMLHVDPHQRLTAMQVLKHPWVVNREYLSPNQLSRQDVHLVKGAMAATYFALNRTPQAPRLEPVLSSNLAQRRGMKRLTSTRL
# Chain of FITC-labeled phosphomimetic TANC1 peptide (p-6 Ser to Glu) (human) (Q9C0D5 whole entry, looked up, tested part not stated): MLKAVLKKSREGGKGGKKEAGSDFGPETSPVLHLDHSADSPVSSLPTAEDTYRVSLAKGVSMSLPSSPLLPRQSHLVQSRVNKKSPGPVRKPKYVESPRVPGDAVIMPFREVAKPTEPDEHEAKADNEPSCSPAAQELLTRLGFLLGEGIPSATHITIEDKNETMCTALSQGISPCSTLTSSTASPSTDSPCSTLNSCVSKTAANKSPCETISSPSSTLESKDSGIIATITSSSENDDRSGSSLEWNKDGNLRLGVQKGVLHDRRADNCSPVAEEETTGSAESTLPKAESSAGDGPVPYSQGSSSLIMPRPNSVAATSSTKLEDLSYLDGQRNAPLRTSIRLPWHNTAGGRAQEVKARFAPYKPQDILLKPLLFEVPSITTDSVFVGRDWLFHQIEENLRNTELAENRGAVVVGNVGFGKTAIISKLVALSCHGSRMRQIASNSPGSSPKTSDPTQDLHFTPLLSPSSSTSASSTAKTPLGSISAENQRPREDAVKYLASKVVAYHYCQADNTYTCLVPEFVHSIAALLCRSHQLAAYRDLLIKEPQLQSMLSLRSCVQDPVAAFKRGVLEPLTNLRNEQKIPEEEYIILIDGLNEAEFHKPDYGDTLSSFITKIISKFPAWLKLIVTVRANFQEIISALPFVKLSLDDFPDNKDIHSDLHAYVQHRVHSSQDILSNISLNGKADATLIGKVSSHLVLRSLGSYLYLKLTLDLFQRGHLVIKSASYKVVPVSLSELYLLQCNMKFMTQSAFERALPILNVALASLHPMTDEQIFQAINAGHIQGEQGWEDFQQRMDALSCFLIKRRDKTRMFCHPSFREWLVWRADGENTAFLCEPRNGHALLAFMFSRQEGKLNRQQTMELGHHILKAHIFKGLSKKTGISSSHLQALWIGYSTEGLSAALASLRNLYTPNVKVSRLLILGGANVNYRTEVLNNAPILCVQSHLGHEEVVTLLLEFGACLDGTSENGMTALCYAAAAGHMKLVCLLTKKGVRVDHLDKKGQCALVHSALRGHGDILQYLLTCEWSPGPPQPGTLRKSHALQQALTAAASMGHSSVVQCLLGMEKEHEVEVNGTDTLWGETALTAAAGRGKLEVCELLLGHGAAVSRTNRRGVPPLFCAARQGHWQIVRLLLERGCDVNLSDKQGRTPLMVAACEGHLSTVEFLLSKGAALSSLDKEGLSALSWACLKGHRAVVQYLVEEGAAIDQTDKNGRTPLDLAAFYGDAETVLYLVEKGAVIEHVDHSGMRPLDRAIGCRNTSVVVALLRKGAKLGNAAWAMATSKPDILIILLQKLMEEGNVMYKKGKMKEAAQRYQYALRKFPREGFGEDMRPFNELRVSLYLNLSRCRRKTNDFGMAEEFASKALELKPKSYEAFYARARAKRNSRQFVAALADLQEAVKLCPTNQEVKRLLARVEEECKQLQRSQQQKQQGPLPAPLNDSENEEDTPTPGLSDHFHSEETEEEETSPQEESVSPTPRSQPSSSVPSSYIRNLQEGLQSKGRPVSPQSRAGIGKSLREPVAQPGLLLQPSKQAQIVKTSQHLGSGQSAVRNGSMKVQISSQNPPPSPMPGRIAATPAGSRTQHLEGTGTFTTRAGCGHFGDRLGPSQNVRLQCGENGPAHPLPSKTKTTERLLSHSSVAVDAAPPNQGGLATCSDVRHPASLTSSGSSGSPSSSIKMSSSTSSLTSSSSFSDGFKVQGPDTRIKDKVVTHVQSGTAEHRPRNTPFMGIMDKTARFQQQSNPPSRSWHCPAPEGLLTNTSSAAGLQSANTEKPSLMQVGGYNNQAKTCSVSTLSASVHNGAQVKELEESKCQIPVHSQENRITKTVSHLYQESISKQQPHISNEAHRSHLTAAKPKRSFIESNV
molecule,measurement,setting,value
DLG1 PDZ2 (domain or fragment),fold higher affinity than for the unphosphorylated peptide,[1],7 fold
same,fold higher affinity than for the unphosphorylated peptide,[2],1.3 fold
same,fold lower affinity than for the unphosphorylated peptide,[3],2.9 fold
same,fold lower affinity than for the unphosphorylated peptide,[4],9 fold
same,fold lower affinity than for the unphosphorylated peptide,[5],2.4 fold
B1,binding result,Scribble PDZ1 [6],binds
B2,binding result,Scribble PDZ1 [6],binds
B3,binding result,Scribble PDZ1 [6],binds
B4,Kd,Scribble PDZ1 [6],390 nM
B5,Kd,Scribble PDZ1 [6],1000 nM
B6,binding result,Scribble PDZ1 R801A,binds
same,binding result,Scribble PDZ1 K746A,binds
same,binding result,Scribble PDZ1 [7],binds
same,binding result,[8],binds
same,binding result,Scribble PDZ1 R762A,binds
B7,binding result,Scribble PDZ1 [6],binds
B8,fold lower affinity than for the unphosphorylated peptide,[9],3.6 fold
same,fold lower affinity than for the unphosphorylated peptide,[10],3 fold
B9,binding result,Scribble PDZ1 [7],binds
same,binding result,[8],binds
same,binding result,Scribble PDZ1 R762A,binds
B10,binding result,Scribble PDZ1 R801A,binds
same,binding result,Scribble PDZ1 K746A,binds
same,fold lower KD than for the unphosphorylated peptide,Scribble PDZ1 [7],5 fold
same,binding result,[8],binds
same,binding result,Scribble PDZ1 R762A,binds
B11,binding result,Scribble PDZ1 [6],binds
B12,binding result,Scribble PDZ1 [6],binds
B13,binding result,Scribble PDZ1 [6],binds
B14,fold lower KD than for the unphosphorylated peptide,Scribble PDZ1 [7],2 fold
same,binding result,[8],binds
same,binding result,Scribble PDZ1 R762A,binds
